pIC50: −log10 of the molar value.
Experiments:
Experiment in all cases: IEDB peptide-MHC binding, purified MHC/competitive/radioactivity; ≥ and ≤ were set here for values at or beyond the usual limits of such assays
HLA-A*02:01 = target: HLA-A*02:01
HLA-A*02:02 = target: HLA-A*02:02
HLA-A*02:03 = target: HLA-A*02:03
HLA-A*02:06 = target: HLA-A*02:06
HLA-A*68:02 = target: HLA-A*68:02
[1] = source organism: Vaccinia virus WR
[2] = source organism: Hepacivirus hominis
[3] = source organism: Mammarenavirus whitewaterense
[4] = source organism: Mammarenavirus guanaritoense

Row | Sequence | pIC50 (HLA-A*02:01; [1]) | pIC50 (HLA-A*02:02; [1]) | pIC50 (HLA-A*02:03; [1]) | pIC50 (HLA-A*02:06; [1]) | pIC50 (HLA-A*68:02; [1]) | further results
1 | WVMDTLNGI | 7.92 | 8.01 | 9.00 | 9.14 | 9.36 | 
2 | AIFNNRNLA | 5.50 | 6.57 | 7.01 | 8.15 | 6.43 | 
3 | DTCLLAISAV | 7.34 | 5.61 | 7.03 | 6.97 | 6.93 | 
4 | RLLLLGLLLL |  |  |  |  |  | pIC50 (HLA-A*02:01; [2]): 6.30; pIC50 (HLA-A*02:02; [2]): 5.92; pIC50 (HLA-A*02:03; [2]): 5.37; pIC50 (HLA-A*02:06; [2]): 5.98; pIC50 (HLA-A*68:02; [2]): 5.44
5 | SLVKPTVYV |  |  |  |  |  | pIC50 (HLA-A*02:01; source organism: SARS-CoV1): 6.97; pIC50 (HLA-A*02:02; source organism: SARS-CoV1): 6.97; pIC50 (HLA-A*02:03; source organism: SARS-CoV1): 7.43; pIC50 (HLA-A*02:06; source organism: SARS-CoV1): 6.33; pIC50 (HLA-A*68:02; source organism: SARS-CoV1): 6.84
6 | KLIEYSDFA |  |  |  |  |  | pIC50 (HLA-A*02:01; source organism: SARS-CoV1): 9.27; pIC50 (HLA-A*02:02; source organism: SARS-CoV1): 10.02; pIC50 (HLA-A*02:03; source organism: SARS-CoV1): 9.28; pIC50 (HLA-A*02:06; source organism: SARS-CoV1): 9.15; pIC50 (HLA-A*68:02; source organism: SARS-CoV1): 8.00
7 | IVAMLLTHGA | 5.31 | 5.94 | 6.82 | 7.09 | 6.30 | 
8 | IASILSLETV | 6.37 | 6.63 | 7.03 | 7.33 | 6.70 | 
9 | FIMRNFLRSI | 9.33 | 7.55 | 9.92 | 9.35 | 6.88 | 
10 | YCNYTKFWYV |  |  |  |  |  | pIC50 (HLA-A*02:01; [3]): 7.12; pIC50 (HLA-A*02:02; [3]): 6.49; pIC50 (HLA-A*02:03; [3]): 6.99; pIC50 (HLA-A*02:06; [3]): 8.19; pIC50 (HLA-A*68:02; [3]): 6.31
11 | NVIGLIVIL | 6.47 | 7.07 | 5.62 | 7.82 | 9.77 | 
12 | MVDVSMMSM | 6.70 | 6.25 | 5.93 | 7.00 | 6.28 | 
13 | NLDDVYSYI | 8.42 | 9.14 | 7.02 | 7.04 | 5.99 | 
14 | TVPTNDHIPV | 5.78 | 5.77 | 5.72 | 6.29 | 7.24 | 
15 | KVEKYLPEV | 7.77 | 5.98 | 6.77 | 6.94 | 5.82 | 
16 | FLITGVFDI |  |  |  |  |  | pIC50 (HLA-A*02:02; source organism: SARS-CoV1): 9.16; pIC50 (HLA-A*02:03; source organism: SARS-CoV1): 9.12; pIC50 (HLA-A*02:06; source organism: SARS-CoV1): 8.82; pIC50 (HLA-A*68:02; source organism: SARS-CoV1): 7.21
17 | YCNYTRFWYI |  |  |  |  |  | pIC50 (HLA-A*02:01; [4]): 6.49; pIC50 (HLA-A*02:02; [4]): 5.98; pIC50 (HLA-A*02:03; [4]): 5.36; pIC50 (HLA-A*02:06; [4]): 7.09; pIC50 (HLA-A*68:02; [4]): 5.87
18 | VIKLVKSLV | 6.06 | 5.99 | 6.90 | 5.39 | 6.19 | 

Row | Sequence | pIC50 (HLA-A*02:01; [1]) | pIC50 (HLA-A*02:02; [1]) | pIC50 (HLA-A*02:03; [1]) | pIC50 (HLA-A*02:06; [1]) | pIC50 (HLA-A*68:02; [1]) | further results
19 | LLPLTSLVIT | 5.93 | 6.00 | 5.88 | 5.79 | 5.83 | 
20 | AIILASFSA |  |  |  |  |  | pIC50 (HLA-A*02:01; source organism: SARS-CoV1): 6.56; pIC50 (HLA-A*02:02; source organism: SARS-CoV1): 6.70; pIC50 (HLA-A*02:03; source organism: SARS-CoV1): 6.75; pIC50 (HLA-A*02:06; source organism: SARS-CoV1): 7.09; pIC50 (HLA-A*68:02; source organism: SARS-CoV1): 6.06
21 | ELKHGLLDSI | 6.13 | 6.27 | 7.26 | 5.87 | 6.58 | 
22 | FVDTMSIYIA | 5.79 | 6.81 | 5.62 | 5.96 | 6.64 | 
23 | LMSFTILCLV |  |  |  |  |  | pIC50 (HLA-A*02:01; source organism: SARS-CoV1): 8.08; pIC50 (HLA-A*02:02; source organism: SARS-CoV1): 9.47; pIC50 (HLA-A*02:03; source organism: SARS-CoV1): 7.04; pIC50 (HLA-A*02:06; source organism: SARS-CoV1): 7.40; pIC50 (HLA-A*68:02; source organism: SARS-CoV1): 7.40
24 | NTIAVITETI | 6.97 | 7.30 | 7.25 | 6.11 | 8.68 | 
25 | CVSNLDISSV | 5.83 | 7.28 | 8.64 | 7.32 | 5.99 | 
26 | KTIAVSVYGA |  | 6.44 | 6.65 | 6.37 | 6.63 | 
27 | ILSCIFAFI | 8.74 | 9.10 | 8.51 | 8.06 | 8.89 | 
28 | TLNTLITLI | 7.29 | 9.00 | 9.22 | 6.03 | 6.33 | 
29 | YIPPCQCTV | 6.97 | 6.71 | 6.35 | 7.04 | 6.64 | 
30 | IMETIDPVYI | 6.90 | 7.54 | 6.62 | 6.46 | 6.09 | 
31 | YVGDTSMMVI | 6.10 | 6.39 | 6.66 | 6.49 | 7.14 | 
32 | PIIYSKAGNI | 6.06 | 6.18 | 6.86 | 6.14 | 5.51 | 
33 | IMTSTRTIIL | 6.27 | 5.99 | 7.28 | 6.36 | 7.04 | 
34 | KLMGHFSWWT |  |  |  |  |  | pIC50 (HLA-A*02:01; source organism: SARS-CoV1): 8.19; pIC50 (HLA-A*02:02; source organism: SARS-CoV1): 7.19; pIC50 (HLA-A*02:03; source organism: SARS-CoV1): 6.67; pIC50 (HLA-A*02:06; source organism: SARS-CoV1): 7.00; pIC50 (HLA-A*68:02; source organism: SARS-CoV1): 5.68
35 | ALINLVQYRI | 7.52 | 8.08 | 7.09 | 6.38 | 5.75 | 
